Data published in patent US20080241155A1 (Human Genome Sciences, published 2008).

What was measured:
[1] = target: T1, TRAIL (TNF-related apoptosis-inducing ligand), soluble (UniProt P50591 95-281, limits assumed); assay: receptor-Fc / ligand co-precipitation, immunoblot
T1 construct: also called Apo-2 ligand; Apo-2L

Fas ligand = target: T2, Fas ligand (UniProt P48023 130-281, limits assumed); assay: receptor-Fc / ligand co-precipitation, immunoblot
T2 construct: Detected by immunoblotting with an antibody to FasL (Pharmingen)
T2 sequence (looked up): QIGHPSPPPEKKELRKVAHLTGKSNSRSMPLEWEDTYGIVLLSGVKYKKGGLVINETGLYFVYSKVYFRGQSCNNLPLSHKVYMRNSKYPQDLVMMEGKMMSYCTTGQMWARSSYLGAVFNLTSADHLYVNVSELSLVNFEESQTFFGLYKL

[2] = target: T3, TNFα (tumor necrosis factor alpha) (UniProt P01375 77-233, limits assumed); assay: co-precipitation from mixed conditioned media with protein G-Sepharose, immunoblot
T3 construct: also called TNF alpha
T3 sequence (P01375 77-233 limits assumed): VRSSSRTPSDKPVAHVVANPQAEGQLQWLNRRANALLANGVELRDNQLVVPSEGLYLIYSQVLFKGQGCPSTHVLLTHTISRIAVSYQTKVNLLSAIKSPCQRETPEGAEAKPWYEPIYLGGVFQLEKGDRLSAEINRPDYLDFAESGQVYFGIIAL

T1 sequence (P50591 95-281 limits assumed): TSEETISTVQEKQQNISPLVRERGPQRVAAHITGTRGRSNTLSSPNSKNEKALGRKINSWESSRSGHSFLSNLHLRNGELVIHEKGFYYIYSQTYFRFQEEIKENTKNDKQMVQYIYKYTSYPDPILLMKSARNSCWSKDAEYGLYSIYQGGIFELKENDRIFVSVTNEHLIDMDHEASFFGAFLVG

B1: TNFR1-Fc (extracellular domain of TNFR-1 expressed as an Fc fusion) (Fc fusion, UniProt P19438 30-211, looked up)
chain: LVPHLGDREKRDSVCPQGKYIHPQNNSICCTKCHKGTYLYNDCPGPGQDTDCRECESGSFTASENHLRHCLSCSKCRKEMGQVEISSCTVDRDTVCGCRKNQYRHYWSENLFQCFNCSLCLNGTVHLSCQEKQNTVCTCHAGFFLRENECVSCSNCKKSLECTKLCLPQIENVKGTEDSGTT
notes: extracellular domain; not shown: Fc portion of human IgG
binding result [1]: no binding

B2: DR4-Fc (soluble extracellular ligand binding domain of DR4, amino acids 110 to 239, fused to the Fc portion of human IgG) (Fc fusion)
chain: TIKLHDQSIGTQQWEHSPLGELCPPGSHRSERPGACNRCTEGVGYTNASNNLFACLPCTACKSDEEERSPCTTTRNTACQCKPGTFRNDNSAEMCRKCSTGCPRGMVKVKDCTPWSDIECVHKESGNGHN
notes: Cloned into a modified pCMV1FLAG vector for in-frame fusion with human IgG Fc and expressed in 293 cells; used as conditioned medium; also called soluble extracellular DR4-Fc fusion; Fc-extracellular domain of DR4; not shown: Fc portion of human immunoglobulin (IgG)
binding result (Fas ligand): no binding | binding result [2]: no binding

B3: CD95-Fc (extracellular domain of CD-95 / Fas expressed as an Fc fusion) (Fc fusion, UniProt P25445 26-173, looked up)
chain: QVTDINSKGLELRKTVTTVETQNLEGLHHDGQFCHKPCPPGERKARDCTVNGDEPDCVPCQEGKEYTDKAHFSSKCRRCRLCDEGHGLEVEINCTRTQNTKCRCKPNFFCNSTVCEHCDPCTKCEHGIIKECTLTSNTKCKEEGSRSN
notes: extracellular domain; also called Fas-Fc; Fc-extracellular domain of Fas; not shown: Fc portion of human IgG
binding result [1]: no binding
